The text below walks through data of US20240392013A1 (STELEXIS THERAPEUTICS, published 2024).

Positions count from the first letter of the chain named.

Test [1] addresses T1, IL1RAP on HEK-Blue IL1β / HEK-Blue IL33 reporter cells (UniProt Q9NPH3 21-570, limits assumed).
T1 sequence (looked up): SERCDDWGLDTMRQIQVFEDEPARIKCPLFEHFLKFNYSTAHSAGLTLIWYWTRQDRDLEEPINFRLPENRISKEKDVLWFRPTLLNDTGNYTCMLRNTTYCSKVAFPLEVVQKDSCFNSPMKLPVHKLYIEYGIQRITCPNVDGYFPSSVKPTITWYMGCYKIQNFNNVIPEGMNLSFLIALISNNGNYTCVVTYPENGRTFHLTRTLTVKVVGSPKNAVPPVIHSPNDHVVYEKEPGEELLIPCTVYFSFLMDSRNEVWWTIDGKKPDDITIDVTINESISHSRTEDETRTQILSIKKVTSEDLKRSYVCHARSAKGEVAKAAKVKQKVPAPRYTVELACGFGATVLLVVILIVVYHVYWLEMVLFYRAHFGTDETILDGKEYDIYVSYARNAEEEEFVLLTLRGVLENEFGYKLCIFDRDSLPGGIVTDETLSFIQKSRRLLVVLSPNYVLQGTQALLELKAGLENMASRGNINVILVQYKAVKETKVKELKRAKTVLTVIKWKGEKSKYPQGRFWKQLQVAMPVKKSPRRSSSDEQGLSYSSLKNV
Nature of the test: cell-based or functional assay.

Test [2] addresses T2, cyIL1RAP-His (Lake Pharma) (cynomolgus monkey, UniProt A0A2K5X5J5 21-367).
T2 construct: Bought protein (Lake Pharma, lot 16205819371); also called cynomolgus IL1RAP; monkey IL1RAP; not shown: His tag
T2 sequence: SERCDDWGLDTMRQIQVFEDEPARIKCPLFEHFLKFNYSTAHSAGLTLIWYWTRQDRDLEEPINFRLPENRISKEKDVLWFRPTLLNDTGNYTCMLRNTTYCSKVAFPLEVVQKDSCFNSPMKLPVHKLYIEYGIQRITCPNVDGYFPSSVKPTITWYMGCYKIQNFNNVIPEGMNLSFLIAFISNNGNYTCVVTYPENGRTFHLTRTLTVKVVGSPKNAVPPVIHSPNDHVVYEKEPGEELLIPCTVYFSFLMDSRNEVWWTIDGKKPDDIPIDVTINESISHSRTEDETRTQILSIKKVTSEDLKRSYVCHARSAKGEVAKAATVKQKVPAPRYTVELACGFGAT
Kind of test: Octet BLI; mAb captured on anti-mouse IgG Fc sensor; cyIL1RAP-His analyte. In a few lines:
(§1)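 Antibodies at 5 μg/ml were captured on anti-mouse IgG Fc biosensors; His-tagged human or cynomolgus IL1RAP extracellular domain served as analyte at 100, 50 and 25 nM in PBS kinetics buffer (0.1% BSA, 0.02% Tween-20). Association 120 s, dissociation 1200 s; KD (M) calculated from binding kinetics.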
In general terms: Biolayer interferometry detects binding as a change in optical thickness at a sensor tip.

Test [3] concerns the target T3, recombinant human IL1RAP protein, extracellular domain His-tagged (Sino Biological, Cat #10121-H08H) (human, UniProt Q9NPH3 21-367).
T3 construct: extracellular domain; Bought protein; The Octet analyte is printed as huIL1RAP-His (Sino Biological, lot MB08MA1301) without a catalogue number; also called huIL1RAP-His; hIL1RAP; not shown: His tag
T3 sequence (looked up): T2 sequence with F183L, P273T, T326K
Nature of the test: Octet BLI; mAb captured on anti-mouse IgG Fc sensor; huIL1RAP-His analyte. Summed up:
as §1

The term Kd denotes the equilibrium constant for the complex coming apart. For orientation: koff means the rate constant with which the complex falls apart. The term kon denotes the second-order rate constant of association.

B1: STLX2012 (antibody, V domains shown)
VH: QVQLLQSGAEVKKPGSSVKVSCKASGGTFSIYAIDWVRQAPGQGLEWMGGIIPIFGTANSAQKFQGRVTITADKSTSTAYMELSSLRSEDTAVYYCARNGATSDAFDMWGQGTMVTVSS
VL: EIVLTQSPGTLSLSPGERATLSCRASLSVSSNYLAWFQQRPGQAPRLLIHGVSRRATGIPDRFSGSGSGTDFTLTISRLEPEDFAVYYCQQYGSSPLTFGGGTKVEIK
notes: Purified from hybridoma of immunized Alivamab mice; intact IgG; captured on anti-mouse IgG Fc sensors in Octet; kappa light chain; also called 74804_12A21B
For B1, the “Max % Inhibition at 200 nM, HEK-BlueIL33 NFκB Reporter Assay” value in test [1] turned out to be 95%. In test [2], this molecule came in with a dissociation constant (Kd) of 1290 pM, a Response of 0.328, a koff of 0.000441 s⁻¹ and a kon of 342000 M⁻¹ s⁻¹. In addition, in test [3], the equilibrium dissociation constant (Kd) came to 934 pM, the Response came to 0.303, the dissociation rate constant (koff) is 0.000287 s⁻¹ and the kon amounted to 308000 M⁻¹ s⁻¹.

B2: STLX2043 (antibody, V domains shown)
VH: B1 VH with A58E, K63N, V68I, S77N, M108I, S118F
VL: B1 VL with H50Y
notes: Purified from hybridoma of immunized Alivamab mice; intact IgG; captured on anti-mouse IgG Fc sensors in Octet; kappa light chain; also called 74804_43F04A
For the molecule B2, in test [1], the “IC50, HEK-BlueIL33 NFκB Reporter Assay” value was 9.62e-09 M (implied; unit not printed) and the “Max % Inhibition at 200 nM, HEK-BlueIL33 NFκB Reporter Assay” value stood at 85%. In test [2], this molecule registered a Kd of 970 pM, a Response of 0.286, an off-rate constant (koff) of 0.0004 s⁻¹ and a kon of 412000 M⁻¹ s⁻¹. Also, in test [3], the dissociation constant (Kd) is 425 pM, the Response was 0.251, the off-rate (koff) was determined as 0.000149 s⁻¹ and the kon stood at 350000 M⁻¹ s⁻¹.
